{"source": "patent US20250276073A1", "about": "(Bicycle, published 2025)", "target": "T1, Recombinant human His-tagged TfR1 (a.a. 89-760) (ACRO Biosystems, CD1-H5243) (human, UniProt P02786 89-760)", "T1 construct": "range 89-760; Bought protein; Captured and amine-coupled on an NTA chip; also called human TfR1; transferrin receptor 1; not shown: His tag (printed 'Hiss-tagged')", "T1 sequence (P02786 89-760 limits assumed)": "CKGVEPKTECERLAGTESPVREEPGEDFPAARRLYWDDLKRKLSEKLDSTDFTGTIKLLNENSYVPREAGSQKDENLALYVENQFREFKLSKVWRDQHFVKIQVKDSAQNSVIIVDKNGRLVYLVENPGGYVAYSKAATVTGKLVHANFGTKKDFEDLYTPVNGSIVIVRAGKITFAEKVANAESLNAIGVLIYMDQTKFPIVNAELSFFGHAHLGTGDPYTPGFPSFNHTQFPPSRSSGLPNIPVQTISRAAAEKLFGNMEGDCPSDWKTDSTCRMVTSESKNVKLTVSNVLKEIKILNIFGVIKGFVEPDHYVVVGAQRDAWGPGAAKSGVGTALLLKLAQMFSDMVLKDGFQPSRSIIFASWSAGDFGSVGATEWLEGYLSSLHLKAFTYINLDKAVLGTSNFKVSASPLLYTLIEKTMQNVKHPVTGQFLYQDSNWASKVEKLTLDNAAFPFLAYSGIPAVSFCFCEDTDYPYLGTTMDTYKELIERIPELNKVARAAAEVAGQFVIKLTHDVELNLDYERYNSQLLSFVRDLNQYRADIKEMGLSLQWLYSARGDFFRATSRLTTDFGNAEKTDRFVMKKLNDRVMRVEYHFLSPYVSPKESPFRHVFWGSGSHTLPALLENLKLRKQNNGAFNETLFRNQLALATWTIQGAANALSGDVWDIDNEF", "assay": "SPR (Biacore), TfR1 captured/coupled on NTA chip, peptide as analyte"}
{"binder": "CPXDAYLGCXSXCEPW (CP[HyP]DAYLGC[tBuGly]S[pCaPhe]CEPW: HyP at 3, tBuGly at 10, pCaPhe at 12; N-terminal acetyl; C-terminal CONH2; Cys 1, 9, 13 bonded to TATB scaffold, Bicyclic peptide)", "note": "[BCY23201]", "values": [{"measurement": "Kd", "result": 17, "unit": "nM"}]}
